Experimental data as given in patent publication US20120237496.
Changes are numbered by the printed parent chain.

T1: Peptide-3
T1 chain: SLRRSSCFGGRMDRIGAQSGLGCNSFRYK

T2: Peptide-13 (not fully specified)
T2 chain: CRPPGFSPFRK

T3: Peptide-8 (not fully specified)
T3 chain: CQLYENKPRRPYILK

T4: Peptide-5 (not fully specified)
T4 chain: CDRVYIHPFHLK

T5: Peptide-6a
T5 chain: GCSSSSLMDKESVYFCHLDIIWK

T6: Peptide-6b
T6 chain: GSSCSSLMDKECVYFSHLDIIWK

B1: C2 (protein)
chain: YPYDVPDYAYPYDVPDYAYPYDVPDYAGSYDDGICKSSDCIKSAARLIQNMDATTEPCTDFFKYACGGWLKRNVIPETSSRYGNFDILRDELEVVLKDVLQEPKTEDIVAVQKAKALYRSCINESAIDSRGGEPLLKLLPDIYGWPVATENWEQKYGASWTAEKAIAQLNSKYGKKVLINLFVGTDDKNSVNHVIHIDQPRLGLPRGDYYECTGIYKEACTAYVDLMISVARLIRQEERLPIDENQLALEMNKVMELEKEIANATAKPEDRNDPMLLYNKMTLAQIQNNFSLEINGKPFSWLNFTNEIMSTVNISITNEEDVVVYAPEYLTKLKPILTKYSARDLQNLMSWRFIMDLVSSLSRTYKESRNAFRKALYVTTSETATWRRCANYVNGNMMNAVGRLYVEAAFAGESKHVVEDLIAQIREVFIQTLDDLTWMDAETKKRAEEKALAIKERIGYPDDIVSNDNKLNNEYLELNYKEDEYFENIIQNLKFSQSKQLKKLREKVDKDEWISGAAVVNAFYSSGRNQIVFPAGILQPPFFSAQQSNSLNYGGIGMVIGHEITHGFFDNGRNPNKDDDLVDWWTQQSASNFKEQSQCMVYQYGNFSWDLAGGQHLNGINTLGENIADNGGLGQAYRAYQNYIKKNGEEKLLPGLDLNHKQLFFLNFAQVWCGTYRPEYAVNSIKTDVHSPKNFRIIGTLQNSAEFSEAFHCRKNSYMNPEKKCRVW
B2: C13 (protein)
chain: B1 chain with R206S, F569M, P575F, D579V
B3: C8 (protein)
chain: B1 chain with L226F, M398E, P575F, D579W
B4: C5 (protein)
chain: B1 chain with L226F
B5: C9 (protein)
chain: B1 chain with L226F, M398E, F569M, G572V, P575F, D579L
B6: C12 (protein)
chain: B1 chain with G207R, M398E, F569M, P575F, D579V
B7: C4 (protein)
chain: B1 chain with L226F, G572V, P575F, D579V
B8: C17 (protein)
chain: B1 chain with R206S, L226F, F569M, G572V, D579G
B9: C7 (protein)
chain: B1 chain with L226F, M398E, G572V, P575F, D579L
B10: C16 (protein)
chain: B1 chain with R206S, L226F, F569M, G572V, D579W
B11: C15 (protein)
chain: B1 chain with R206S, L226F, F569M, G572V, P575F
B12: C11 (protein)
chain: B1 chain with G207R, F569M, D579W
B13: C3 (protein)
chain: B1 chain with M398E
B14: C10 (protein)
chain: B1 chain with G207R, F569M, G572V
B15: C18 (protein)
chain: B1 chain with R206S, L226F, F569M, G572V, P575F, D579W
B16: C6 (protein)
chain: B1 chain with L226F, F569M, G572V, P575F, D579V
B17: C14 (protein)
chain: B1 chain with R206S, F569M, P575F

Each protein was assayed against Peptide-7.

Protein | kapp ratio vs G399V/G714K (B1) [fold] | activity relative to G399V/G714K (B1) [fold]
B1 | 0.47 | 
B2 | 0.36 | 
B3 | 0.69 | 
B4 | 0.72 | 
B5 | 0.52 | 
B6 | 0.84 | 
B7 | 0.44 | 
B8 | 0.57 | 
B9 | 0.47 | 
B10 | 0.7 | 
B11 | 0.75 | 
B12 | 0.66 | 
B13 | 0.64 | 
B14 | 0.49 | 0.68
B15 | 0.67 | 
B16 | 0.61 | 
B17 | 0.59 | 

Target: T1, Peptide-3

Protein | kapp ratio vs G399V/G714K (B1) [fold]
B1 | 0.24
B2 | 0.24
B3 | 0.24
B4 | 0.24
B5 | 0.24
B6 | 0.24
B7 | 0.24
B8 | 0.24
B9 | 0.24
B10 | 0.24
B11 | 0.24
B12 | 0.24
B13 | 0.24
B14 | 0.24
B15 | 0.24
B16 | 0.24
B17 | 0.24

What follows are proteins tested against Peptide-1.

Protein | kapp ratio vs G399V/G714K (B1) [fold] | activity relative to G399V/G714K (B1) [fold]
B1 | 1.06 | 
B2 | 1.78 | 
B3 | 1.86 | 
B4 | 1.95 | 
B5 | 2.33 | 
B6 | 2.11 | 
B7 | 2.41 | 
B8 | 3.28 | 
B9 | 2.77 | 
B10 | 2.24 | 
B11 | 2.52 | 
B12 | 2.19 | 
B13 | 0.86 | 
B14 | 2.35 | 2.05
B15 | 2.56 | 
B16 | 2.35 | 
B17 | 1.98 | 

Target: T2, Peptide-13

Protein | kapp ratio vs G399V/G714K (B1) [fold]
B1 | 0.68
B2 | 0.39
B3 | 0.43
B4 | 0.63
B5 | 0.52
B6 | 0.83
B7 | 0.62
B8 | 0.49
B9 | 0.43
B10 | 0.44
B11 | 0.44
B12 | 0.61
B13 | 0.85
B14 | 0.68
B15 | 0.5
B16 | 0.85
B17 | 0.71

Target: T3, Peptide-8

Protein | kapp ratio vs G399V/G714K (B1) [fold]
B1 | 0.34
B2 | 0.35
B3 | 0.36
B4 | 0.41
B5 | 0.46
B6 | 0.43
B7 | 0.4
B8 | 0.33
B9 | 0.46
B10 | 0.4
B11 | 0.52
B12 | 0.35
B13 | 0.37
B14 | 0.34
B15 | 0.73
B16 | 0.37
B17 | 0.43

Each protein was assayed against Peptide-4.

Protein | kapp ratio vs G399V/G714K (B1) [fold] | activity relative to G399V/G714K (B1) [fold]
B1 | 0.72 | 
B2 | 0.91 | 
B3 | 1.17 | 
B4 | 0.74 | 
B5 | 0.67 | 
B6 | 0.79 | 
B7 | 0.44 | 
B8 | 0.7 | 
B9 | 0.96 | 
B10 | 0.7 | 
B11 | 0.7 | 
B12 | 0.49 | 
B13 | 0.79 | 
B14 | 0.8 | 0.83
B15 | 0.59 | 
B16 | 1.26 | 
B17 | 0.72 | 

Target: T4, Peptide-5

Protein | kapp ratio vs G399V/G714K (B1) [fold] | activity relative to G399V/G714K (B1) [fold]
B1 | 0.19 | 
B2 | 0.18 | 
B3 | 0.27 | 
B4 | 0.22 | 
B5 | 0.22 | 
B6 | 0.26 | 
B7 | 0.27 | 
B8 | 0.27 | 
B9 | 0.34 | 
B10 | 0.21 | 
B11 | 0.25 | 
B12 | 0.19 | 
B13 | 0.15 | 
B14 | 0.17 | 0.08
B15 | 0.16 | 
B16 | 0.29 | 
B17 | 0.2 | 

Target: T5, Peptide-6a

Protein | kapp ratio vs G399V/G714K (B1) [fold] | activity relative to G399V/G714K (B1) [fold]
B1 | 0.14 | 
B2 | 0.3 | 
B3 | 0.32 | 
B4 | 0.23 | 
B5 | 0.31 | 
B6 | 0.32 | 
B7 | 0.37 | 
B8 | 0.47 | 
B9 | 0.42 | 
B10 | 0.35 | 
B11 | 0.46 | 
B12 | 0.28 | 
B13 | 0.18 | 
B14 | 0.27 | 0.28
B15 | 0.36 | 
B16 | 0.28 | 
B17 | 0.3 | 

Target: T6, Peptide-6b

Protein | kapp ratio vs G399V/G714K (B1) [fold]
B1 | 0.1
B2 | 0.18
B3 | 0.24
B4 | 0.18
B5 | 0.21
B6 | 0.18
B7 | 0.29
B8 | 0.33
B9 | 0.28
B10 | 0.23
B11 | 0.24
B12 | 0.11
B13 | 0.09
B14 | 0.19
B15 | 0.26
B16 | 0.19
B17 | 0.24

What follows are proteins tested against Peptide-2.

Protein | kapp ratio vs G399V/G714K (B1) [fold] | activity relative to G399V/G714K (B1) [fold]
B1 | 0.88 | 
B2 | 1.56 | 
B3 | 1.64 | 
B4 | 1.92 | 
B5 | 2.44 | 
B6 | 2.04 | 
B7 | 2.43 | 
B8 | 3.13 | 
B9 | 2.83 | 
B10 | 2.19 | 
B11 | 2.72 | 
B12 | 2.14 | 
B13 | 0.81 | 
B14 | 2.6 | 2.39
B15 | 2.29 | 
B16 | 2.36 | 
B17 | 2.01 | 
